From IntAct's records for PubMed 16902413

target: nebu_human NEB (UniProt P20929)

| effect of a mutation on the interaction | Substance |
| --- | --- |
| decreasing interaction | Titin (Homo sapiens), Q8WZ42 P254G |
| decreasing interaction | Titin (Homo sapiens), Q8WZ42 P258G |
| decreasing interaction | Titin (Homo sapiens), Q8WZ42 P266G |
| decreasing interaction | Titin (Homo sapiens), Q8WZ42 P268G |
| decreasing interaction | Titin (Homo sapiens), Q8WZ42 P269G |
